Literature values in publication PMC4303049.

Legend:
[1] = biological target: PACS-2 FBR (Homo sapiens) (UniProt Q86VP3)
[2] = biological target: PACS-1 FBR (Homo sapiens) (UniProt Q6VY07)
PACS-1 FBR (Homo sapiens), sequence (Q6VY07 117-266): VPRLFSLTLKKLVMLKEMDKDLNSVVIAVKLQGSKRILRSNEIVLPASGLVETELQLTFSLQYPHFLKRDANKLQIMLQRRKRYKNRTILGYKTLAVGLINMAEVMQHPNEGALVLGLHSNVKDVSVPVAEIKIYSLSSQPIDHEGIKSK

PACS-2 FBR (Homo sapiens), sequence (Q86VP3 37-186): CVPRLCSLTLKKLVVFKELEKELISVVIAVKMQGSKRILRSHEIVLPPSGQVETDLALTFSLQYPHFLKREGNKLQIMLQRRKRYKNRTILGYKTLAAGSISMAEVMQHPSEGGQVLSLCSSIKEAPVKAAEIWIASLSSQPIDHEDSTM

Kd [1]: 15.4 µM | Kd [2]: 14.8 µM
Substance: Polycystin-2 phosphorylated acidic cluster (from UniProt Q13563)
